The record followed here is PMC6555848, “Structural and functional consequences of the STAT5B^N642H driver mutation” (Nature Communications, 2019).

Where a chain is given by its changes, count along the chain named. Names may count otherwise.

Series [1] deals with the molecule itself. Kind of series: crystal structure; unphosphorylated core fragment A136-Q703; two molecules per asymmetric unit; STAT5B 3.29 Å, STAT5B^N642H 3.21 Å.
Series [2] deals with the molecule itself. Kind of series: dynamic light scattering; 50 µM protein in 20 mM HEPES pH 7.4, 150 mM NaCl, 2% glycerol; unphosphorylated protein, self-association.

B1: human STAT5B core fragment (A136-Q703) (domain or fragment, UniProt P51692 136-703, looked up)
chain: AMSQKHLQINQTFEELRLVTQDTENELKKLQQTQEYFIIQYQESLRIQAQFGPLAQLSPQERLSRETALQQKQVSLEAWLQREAQTLQQYRVELAEKHQKTLQLLRKQQTIILDDELIQWKRRQQLAGNGGPPEGSLDVLQSWCEKLAEIIWQNRQQIRRAEHLCQQLPIPGPVEEMLAEVNATITDIISALVTSTFIIEKQPPQVLKTQTKFAATVRLLVGGKLNVHMNPPQVKATIISEQQAKSLLKNENTRNDYSGEILNNCCVMEYHQATGTLSAHFRNMSLKRIKRSDRRGAESVTEEKFTILFESQFSVGGNELVFQVKTLSLPVVVIVHGSQDNNATATVLWDNAFAEPGRVPFAVPDKVLWPQLCEALNMKFKAEVQSNRGLTKENLVFLAQKLFNNSSSHLEDYSGLSVSWSQFNRENLPGRNYTFWQWFDGVMEVLKKHLKPHWNDGAILGFVNKQQAHDLLINKPDGTFLLRFSDSEIGGITIAWKFDSQERMFWNLMPFTTRDFSIRSLADRLGDLNYLIYVFPDRPKDEVYSKYYTPVPCESATAKAVDGYVKPQ
notes: human STAT5B core fragment A136-Q703 (printed once as S136-Q703), unphosphorylated; Two molecules per asymmetric unit; described as the unphosphorylated dimer; also called unphosphorylated STAT core fragment; source: E. coli BL21 (DE3) RILP, purified (Ni-NTA, Ulp1 cleavage, SEC); not shown: His, N-terminal, cleaved; SUMO, N-terminal, cleaved
On to B1, for which, in series [1], the binding result was “binds”.

B2: STAT5B^N642H core fragment (A136-Q703) (domain or fragment, human, UniProt P51692 136-703, looked up)
chain: B1 chain with N507H
notes: human STAT5B core fragment A136-Q703 with the patient-derived mutation N642H; Two molecules per asymmetric unit; described as the unphosphorylated dimer; source: E. coli BL21 (DE3) RILP, purified (Ni-NTA, Ulp1 cleavage, SEC); not shown: His, N-terminal, cleaved; SUMO, N-terminal, cleaved
As to B2, the binding result in series [1] is given as “binds”.

B3: full-length human STAT5B (M1-S787) (natural protein, UniProt P51692 1-787, looked up)
chain: MAVWIQAQQLQGEALHQMQALYGQHFPIEVRHYLSQWIESQAWDSVDLDNPQENIKATQLLEGLVQELQKKAEHQVGEDGFLLKIKLGHYATQLQNTYDRCPMELVRCIRHILYNEQRLVREANNGSSPAGSLADAMSQKHLQINQTFEELRLVTQDTENELKKLQQTQEYFIIQYQESLRIQAQFGPLAQLSPQERLSRETALQQKQVSLEAWLQREAQTLQQYRVELAEKHQKTLQLLRKQQTIILDDELIQWKRRQQLAGNGGPPEGSLDVLQSWCEKLAEIIWQNRQQIRRAEHLCQQLPIPGPVEEMLAEVNATITDIISALVTSTFIIEKQPPQVLKTQTKFAATVRLLVGGKLNVHMNPPQVKATIISEQQAKSLLKNENTRNDYSGEILNNCCVMEYHQATGTLSAHFRNMSLKRIKRSDRRGAESVTEEKFTILFESQFSVGGNELVFQVKTLSLPVVVIVHGSQDNNATATVLWDNAFAEPGRVPFAVPDKVLWPQLCEALNMKFKAEVQSNRGLTKENLVFLAQKLFNNSSSHLEDYSGLSVSWSQFNRENLPGRNYTFWQWFDGVMEVLKKHLKPHWNDGAILGFVNKQQAHDLLINKPDGTFLLRFSDSEIGGITIAWKFDSQERMFWNLMPFTTRDFSIRSLADRLGDLNYLIYVFPDRPKDEVYSKYYTPVPCESATAKAVDGYVKPQIKQVVPEFVNASADAGGGSATYMDQAPSPAVCPQAHYNMYPQNPDSVLDTDGDFDLEDTMDVARRVEELLGRPMDSQWIPHAQS
notes: human STAT5B, full length M1-S787, gene NCBI NM_012448.3, unphosphorylated; also called wild-type STAT5B; wild-type; source: E. coli BL21 (DE3) RILP, purified (Ni-NTA, Ulp1 cleavage, SEC); not shown: His, N-terminal, cleaved; SUMO, N-terminal, cleaved
Consider B3, for which the stoichiometry N – broadly, the number of molecules, sites or subunits per partner or assembly – in series [2] stood at 2.
